In paper doi:10.1101/2020.02.01.930206 (bioRxiv, 2020):
Blank lines part the entries; values can stand above or below the binder they belong to.

Experiments:
[1] = target: the molecule itself; experiment: negative-stain electron microscopy
[2] = target: full-length human CIA targeting complex (MMS19-CIAO1-CIAO2B) (human, UniProt Q96T76;O76071;Q9Y3D0); experiment: ITC
[3] = target: human MMS19^381-1030-CIAO1-CIAO2B complex (human, UniProt Q96T76;O76071;Q9Y3D0); experiment: ITC
[4] = target: human CIAO1-CIAO2B core complex (human, UniProt O76071;Q9Y3D0); experiment: ITC
[5] = target: T1, Drosophila melanogaster CIAO1 (Drosophila melanogaster, UniProt Q7K1Y4 1-335); experiment: crystal structure
T1 sequence: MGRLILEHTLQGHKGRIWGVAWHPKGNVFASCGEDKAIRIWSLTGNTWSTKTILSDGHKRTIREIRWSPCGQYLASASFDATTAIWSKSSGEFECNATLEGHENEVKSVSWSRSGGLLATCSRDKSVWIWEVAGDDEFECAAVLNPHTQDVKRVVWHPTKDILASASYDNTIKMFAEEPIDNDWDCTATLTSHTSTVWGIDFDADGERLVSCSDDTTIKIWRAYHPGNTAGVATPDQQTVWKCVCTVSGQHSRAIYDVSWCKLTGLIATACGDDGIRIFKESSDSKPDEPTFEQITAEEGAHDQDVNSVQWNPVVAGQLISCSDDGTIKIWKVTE

crystal structure = target: the molecule itself; experiment: crystal structure
full-length mouse MMS19 = target: T2, full-length mouse MMS19 (mouse, UniProt Q9D071 1-1031); experiment: crystal structure
T2 sequence: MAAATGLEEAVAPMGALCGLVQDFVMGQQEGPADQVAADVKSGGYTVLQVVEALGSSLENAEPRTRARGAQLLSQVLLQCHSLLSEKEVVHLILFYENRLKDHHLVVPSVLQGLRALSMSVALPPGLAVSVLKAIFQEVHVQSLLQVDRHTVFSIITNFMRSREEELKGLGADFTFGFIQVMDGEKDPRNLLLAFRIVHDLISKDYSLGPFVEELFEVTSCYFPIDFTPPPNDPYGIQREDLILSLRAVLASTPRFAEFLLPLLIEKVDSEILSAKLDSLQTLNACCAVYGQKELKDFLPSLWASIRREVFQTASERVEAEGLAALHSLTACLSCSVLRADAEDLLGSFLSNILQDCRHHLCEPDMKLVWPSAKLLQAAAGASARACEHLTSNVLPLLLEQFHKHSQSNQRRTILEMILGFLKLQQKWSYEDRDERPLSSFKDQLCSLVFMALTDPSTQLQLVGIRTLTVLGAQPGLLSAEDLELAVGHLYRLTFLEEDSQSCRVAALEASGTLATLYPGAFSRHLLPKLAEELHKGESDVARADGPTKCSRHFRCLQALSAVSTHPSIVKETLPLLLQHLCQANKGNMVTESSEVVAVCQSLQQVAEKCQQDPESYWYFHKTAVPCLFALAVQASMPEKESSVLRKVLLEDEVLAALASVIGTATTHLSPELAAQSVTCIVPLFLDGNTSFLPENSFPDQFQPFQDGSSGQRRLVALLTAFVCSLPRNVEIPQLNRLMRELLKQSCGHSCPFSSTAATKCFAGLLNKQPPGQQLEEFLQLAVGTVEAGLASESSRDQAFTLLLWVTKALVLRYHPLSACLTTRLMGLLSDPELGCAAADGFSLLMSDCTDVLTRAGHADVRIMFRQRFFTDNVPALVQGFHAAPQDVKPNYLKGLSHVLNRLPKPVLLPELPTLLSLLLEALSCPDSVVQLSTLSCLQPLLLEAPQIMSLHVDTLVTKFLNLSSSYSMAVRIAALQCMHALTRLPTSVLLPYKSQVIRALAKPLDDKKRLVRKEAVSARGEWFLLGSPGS

human MMS19^381-1030-CIAO1-CIAO2B complex, sequence (O76071 whole entry, one chain of several): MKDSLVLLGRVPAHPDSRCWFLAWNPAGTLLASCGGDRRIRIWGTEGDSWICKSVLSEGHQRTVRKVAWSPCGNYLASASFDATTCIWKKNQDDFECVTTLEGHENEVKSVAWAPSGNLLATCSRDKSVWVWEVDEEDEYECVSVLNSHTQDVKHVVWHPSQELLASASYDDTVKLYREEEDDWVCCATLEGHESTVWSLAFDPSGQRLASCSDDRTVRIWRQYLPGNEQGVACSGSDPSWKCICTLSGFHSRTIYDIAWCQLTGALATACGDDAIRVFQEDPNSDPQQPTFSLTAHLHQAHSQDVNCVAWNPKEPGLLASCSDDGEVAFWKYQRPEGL
human CIAO1-CIAO2B core complex, sequence (O76071 whole entry, one chain of several): as above
full-length human CIA targeting complex (MMS19-CIAO1-CIAO2B), sequence (O76071 whole entry, one chain of several): as above

B1: all-mouse CIA targeting complex (MmMMS19-MmCIAO1-CIAO2B) (complex)
chain 1: T2 sequence
chain 2: not shown
chain 3: MVGGGGSGGGLLENANPLIYERSGERPVTAGEEDEEVPDSIDAREIFDLIRSINDPEHPLTLEELNVVEQVRIQVSDPESTVAVAFTPTIPHCSMATLIGLSIKVKLLRSLPQRFKMDVHITPGTHASEHAVNKQLADKERVAAALENTHLLEVVNQCLSARS
- binding result [1]: binds

B4: Drosophila melanogaster CIAO2B (natural protein)
chain: MPTEIENINPNVYDRIKERVLTANEEDENVPDPFDKREIFDLIRNINDPEHPLTLEELHVVQEDLIRINDSQNSVHISFTPTIPHCSMATLIGLSIRVKLLRSLPPRFKVTVEITPGTHASELAVNKQLADKERVAAALENNHLAEVINQCIAAKG
- binding result [5]: binds
- binding result (crystal structure): binds
- binding result (full-length mouse MMS19): binds

B5: Drosophila melanogaster CIAO1-CIAO2B core complex (complex)
chain 1: T1 sequence
chain 2: B4 chain
- binding result (full-length mouse MMS19): binds

Now from value to binder:

- Kd [2]: 35 nM
- Kd [3]: 508 nM
B2: human primase (PriL-PriS heterodimer) (complex)
chain 1: MEFSGRKWRKLRLAGDQRNASYPHCLQFYLQPPSENISLIEFENLAIDRVKLLKSVENLGVSYVKGTEQYQSKLESELRKLKFSYRENLEDEYEPRRRDHISHFILRLAYCQSEELRRWFIQQEMDLLRFRFSILPKDKIQDFLKDSQLQFEAISDEEKTLREQEIVASSPSLSGLKLGFESIYKIPFADALDLFRGRKVYLEDGFAYVPLKDIVAIILNEFRAKLSKALALTARSLPAVQSDERLQPLLNHLSHSYTGQDYSTQGNVGKISLDQIDLLSTKSFPPCMRQLHKALRENHHLRHGGRMQYGLFLKGIGLTLEQALQFWKQEFIKGKMDPDKFDKGYSYNIRHSFGKEGKRTDYTPFSCLKIILSNPPSQGDYHGCPFRHSDPELLKQKLQSYKISPGGISQILDLVKGTHYQVACQKYFEMIHNVDDCGFSLNHPNQFFCESQRILNGGKDIKKEPIQPETPQPKPSVQKTKDASSALASLNSSLEMDMEGLEDYFSEDS
chain 2: METFDPTELPELLKLYYRRLFPYSQYYRWLNYGGVIKNYFQHREFSFTLKDDIYIRYQSFNNQSDLEKEMQKMNPYKIDIGAVYSHRPNQHNTVKLGAFQAQEKELVFDIDMTDYDDVRRCCSSADICPKCWTLMTMAIRIIDRALKEDFGFKHRLWVYSGRRGVHCWVCDESVRKLSSAVRSGIVEYLSLVKGGQDVKKKVHLSEKIHPFIRKSINIIKKYFEEYALVNQDILENKESWDKILALVPETIHDELQQSFQKSHNSLQRWEHLKKVASRYQNNIKNDKYGPWLEWEIMLQYCFPRLDINVSKGINHLLKSPFSVHPKTGRISVPIDLQKVDQFDPFTVPTISFICRELDAISTNEEEKEENEAESDVKHRTRDYKKTSLAPYVKVFEHFLENLDKSRKGELLKKSDLQKDF

- Kd [4]: 3.1 µM
B3: human primase small subunit PriS (natural protein)
chain: B2 chain 2
